Laboratory results: IntAct's records for PubMed 24114786

B1: BRASSINOSTEROID … 1-associated receptor kinase 1 (Arabidopsis thaliana (Mouse-ear cress)), Q94F62 (parent)
chain: MERRLMIPCFFWLILVLDLVLRVSGNAEGDALSALKNSLADPNKVLQSWDATLVTPCTWFHVTCNSDNSVTRVDLGNANLSGQLVMQLGQLPNLQYLELYSNNITGTIPEQLGNLTELVSLDLYLNNLSGPIPSTLGRLKKLRFLRLNNNSLSGEIPRSLTAVLTLQVLDLSNNPLTGDIPVNGSFSLFTPISFANTKLTPLPASPPPPISPTPPSPAGSNRITGAIAGGVAAGAALLFAVPAIALAWWRRKKPQDHFFDVPAEEDPEVHLGQLKRFSLRELQVASDNFSNKNILGRGGFGKVYKGRLADGTLVAVKRLKEERTQGGELQFQTEVEMISMAVHRNLLRLRGFCMTPTERLLVYPYMANGSVASCLRERPESQPPLDWPKRQRIALGSARGLAYLHDHCDPKIIHRDVKAANILLDEEFEAVVGDFGLAKLMDYKDTHVTTAVRGTIGHIAPEYLSTGKSSEKTDVFGYGVMLLELITGQRAFDLARLANDDDVMLLDWVKGLLKEKKLEALVDVDLQGNYKDEEVEQLIQVALLCTQSSPMERPKMSEVVRMLEGDGLAERWEEWQKEEMFRQDFNYPTHHPAVSGWIIGDSTSQIENEYPSGPR
B2: A-type flagellin (Pseudomonas aeruginosa), P21184 (parent)
chain: MALTVNTNIASLNTQRNLNNSSASLNTSLQRLSTGSRINSAKDDAAGLQIANRLTSQVNGLNVATKNANDGISLAQTAEGALQQSTNILQRMRDLSLQSANGSNSDSERTALNGEVKQLQKELDRISNTTTFGGRKLLDGSFGVASFQVGSAANEIISVGIDEMSAESLNGTYFKADGGGAVTAATASGTVDIAIGITGGSAVNVKVDMKGNETAEQAAAKIAAAVNDANVGIGAFSDGDTISYVSKAGKDGSGAITSAVSGVVIADTGSTGVGTAAGVTPSATAFAKTNDTVAKIDISTAKGAQSAVLVIDEAIKQIDAQRADLGAVQNRFDNTINNLKNIGENVSAARGRIEDTDFAAETANLTKNQVLQQAGTAILAQANQLPQSVLSLLR

Variants of: B1
Conditions: with flica_pseai fliC
For Y96A, the “effect of a mutation on the interaction” value was “decreasing interaction strength”.
For L53A, the “effect of a mutation on the interaction” value was “decreasing interaction strength”.
V54Y was tested, and the “effect of a mutation on the interaction” value was “decreasing interaction strength”.
With F60A;F144A the “effect of a mutation on the interaction” value was “disrupting interaction strength”.

Variants of: B1
Conditions: with fls2_arath FLS2, Q9FL28
Target sequence in this assay (Q9FL28 whole entry): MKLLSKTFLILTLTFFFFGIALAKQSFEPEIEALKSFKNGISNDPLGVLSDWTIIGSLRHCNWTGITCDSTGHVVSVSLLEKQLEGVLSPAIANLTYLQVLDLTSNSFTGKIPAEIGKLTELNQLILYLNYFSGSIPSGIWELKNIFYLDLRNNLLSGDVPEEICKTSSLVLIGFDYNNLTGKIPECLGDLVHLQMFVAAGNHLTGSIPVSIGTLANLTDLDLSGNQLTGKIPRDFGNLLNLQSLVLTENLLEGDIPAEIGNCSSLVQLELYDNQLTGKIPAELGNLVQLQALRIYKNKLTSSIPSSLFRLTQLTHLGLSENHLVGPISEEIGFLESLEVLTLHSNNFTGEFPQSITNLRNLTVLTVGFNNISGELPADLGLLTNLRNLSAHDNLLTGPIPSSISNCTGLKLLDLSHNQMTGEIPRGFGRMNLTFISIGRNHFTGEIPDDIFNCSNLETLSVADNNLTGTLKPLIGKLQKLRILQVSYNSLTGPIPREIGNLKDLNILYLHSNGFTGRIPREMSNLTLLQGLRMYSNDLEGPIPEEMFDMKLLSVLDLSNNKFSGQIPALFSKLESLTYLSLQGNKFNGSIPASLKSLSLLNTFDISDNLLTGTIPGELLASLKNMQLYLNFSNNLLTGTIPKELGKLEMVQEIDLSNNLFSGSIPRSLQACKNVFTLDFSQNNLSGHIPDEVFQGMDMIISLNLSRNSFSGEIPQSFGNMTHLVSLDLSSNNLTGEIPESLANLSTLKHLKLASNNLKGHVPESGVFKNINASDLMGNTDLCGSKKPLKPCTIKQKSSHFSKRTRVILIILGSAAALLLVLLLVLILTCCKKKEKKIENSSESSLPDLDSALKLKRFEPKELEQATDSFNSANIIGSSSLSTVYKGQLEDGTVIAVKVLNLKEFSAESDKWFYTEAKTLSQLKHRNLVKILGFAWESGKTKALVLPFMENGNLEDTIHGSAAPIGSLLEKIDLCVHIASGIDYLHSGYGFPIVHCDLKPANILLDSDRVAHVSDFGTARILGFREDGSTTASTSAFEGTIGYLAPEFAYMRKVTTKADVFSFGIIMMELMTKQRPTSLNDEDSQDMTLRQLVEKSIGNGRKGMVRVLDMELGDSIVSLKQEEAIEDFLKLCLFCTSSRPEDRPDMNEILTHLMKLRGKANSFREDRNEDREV
Y96A was tested, and the “effect of a mutation on the interaction” value was “disrupting interaction strength”.
L53A was tested, and the “effect of a mutation on the interaction” value was “disrupting interaction strength”.
With V54Y the “effect of a mutation on the interaction” value was “disrupting interaction strength”.
F60A;F144A was tested, and the “effect of a mutation on the interaction” value was “disrupting interaction strength”.

Variants of: B2
Conditions: with bak1_arath BAK1, Q94F62
In the case of MALTVNTNIASLNTQRNLNNSSASLNTSLQRLSTGSRINSAKDDAAALQIANRLTSQVNGLNVATKNANDGISLAQTAEGALQQSTNILQRMRDLSLQSANGSNSDSERTALNGEVKQLQKELDRISNTTTFGGRKLLDGSFGVASFQVGSAANEIISVGIDEMSAESLNGTYFKADGGGAVTAATASGTVDIAIGITGGSAVNVKVDMKGNETAEQAAAKIAAAVNDANVGIGAFSDGDTISYVSKAGKDGSGAITSAVSGVVIADTGSTGVGTAAGVTPSATAFAKTNDTVAKIDISTAKGAQSAVLVIDEAIKQIDAQRADLGAVQNRFDNTINNLKNIGENVSAARGRIEDTDFAAETANLTKNQVLQQAGTAILAQANQLPQSVLSLLR [G47A], the “effect of a mutation on the interaction” value is reported as “decreasing interaction strength”.
MALTVNTNIASLNTQRNLNNSSASLNTSLQRLSTGSRINSAKDDAAYLQIANRLTSQVNGLNVATKNANDGISLAQTAEGALQQSTNILQRMRDLSLQSANGSNSDSERTALNGEVKQLQKELDRISNTTTFGGRKLLDGSFGVASFQVGSAANEIISVGIDEMSAESLNGTYFKADGGGAVTAATASGTVDIAIGITGGSAVNVKVDMKGNETAEQAAAKIAAAVNDANVGIGAFSDGDTISYVSKAGKDGSGAITSAVSGVVIADTGSTGVGTAAGVTPSATAFAKTNDTVAKIDISTAKGAQSAVLVIDEAIKQIDAQRADLGAVQNRFDNTINNLKNIGENVSAARGRIEDTDFAAETANLTKNQVLQQAGTAILAQANQLPQSVLSLLR [G47Y] was tested, and the “effect of a mutation on the interaction” value was “disrupting interaction strength”.

Variants of: B2
Conditions: with fls2_arath FLS2, Q9FL28
Target sequence in this assay (Q9FL28 whole entry): as the sequence (Q9FL28 whole entry) above
For MALTVNTNIASLNTQRNLNNSSASLNTSLQRLSTGSRINSAKADAAGLQIANRLTSQVNGLNVATKNANDGISLAQTAEGALQQSTNILQRMRDLSLQSANGSNSDSERTALNGEVKQLQKELDRISNTTTFGGRKLLDGSFGVASFQVGSAANEIISVGIDEMSAESLNGTYFKADGGGAVTAATASGTVDIAIGITGGSAVNVKVDMKGNETAEQAAAKIAAAVNDANVGIGAFSDGDTISYVSKAGKDGSGAITSAVSGVVIADTGSTGVGTAAGVTPSATAFAKTNDTVAKIDISTAKGAQSAVLVIDEAIKQIDAQRADLGAVQNRFDNTINNLKNIGENVSAARGRIEDTDFAAETANLTKNQVLQQAGTAILAQANQLPQSVLSLLR [D43A], the “effect of a mutation on the interaction” value was “disrupting interaction strength”.
With MALTVNTNIASLNTQRNLNNSSASLNTSLQRLSTGSRINSAKDAAAGLQIANRLTSQVNGLNVATKNANDGISLAQTAEGALQQSTNILQRMRDLSLQSANGSNSDSERTALNGEVKQLQKELDRISNTTTFGGRKLLDGSFGVASFQVGSAANEIISVGIDEMSAESLNGTYFKADGGGAVTAATASGTVDIAIGITGGSAVNVKVDMKGNETAEQAAAKIAAAVNDANVGIGAFSDGDTISYVSKAGKDGSGAITSAVSGVVIADTGSTGVGTAAGVTPSATAFAKTNDTVAKIDISTAKGAQSAVLVIDEAIKQIDAQRADLGAVQNRFDNTINNLKNIGENVSAARGRIEDTDFAAETANLTKNQVLQQAGTAILAQANQLPQSVLSLLR [D44A] the “effect of a mutation on the interaction” value was “disrupting interaction strength”.
In the case of MALTVNTNIASLNTQRNLNNSSASLNTSLQRLSTGSRINSAKDDAYGLQIANRLTSQVNGLNVATKNANDGISLAQTAEGALQQSTNILQRMRDLSLQSANGSNSDSERTALNGEVKQLQKELDRISNTTTFGGRKLLDGSFGVASFQVGSAANEIISVGIDEMSAESLNGTYFKADGGGAVTAATASGTVDIAIGITGGSAVNVKVDMKGNETAEQAAAKIAAAVNDANVGIGAFSDGDTISYVSKAGKDGSGAITSAVSGVVIADTGSTGVGTAAGVTPSATAFAKTNDTVAKIDISTAKGAQSAVLVIDEAIKQIDAQRADLGAVQNRFDNTINNLKNIGENVSAARGRIEDTDFAAETANLTKNQVLQQAGTAILAQANQLPQSVLSLLR [A46Y], the “effect of a mutation on the interaction” value is reported as “decreasing interaction strength”.
